The record followed here is patent US20250026815A1 (GAN AND LEE PHARMACEUTICALS, published 2025).

For experiment [1], the target named is T1, recombinant RSV-F protein (RSV A2 strain fusion (F) protein with added His tag) (human respiratory syncytial virus, A2 …, UniProt P03420 26-524).
T1 construct: also called RSV-F recombinant protein
Put plainly: SPR (Biacore), antibody captured, RSV-F as analyte.

Experiment [2] concerns the target RSV-F protein of RSV A2 virus (as carried by the live virus in the neutralisation assay) (human respiratory syncytial virus, …, UniProt P03420 26-574). In words: cell-based or functional assay.
In experiment [3] the target is RSV-F protein of RSV A Long virus (as carried by the live virus in the neutralisation assay) (human respiratory syncytial virus, …, UniProt P12568 26-574). Put plainly: cell-based or functional assay.
The target of experiment [4] is RSV-F protein of RSV B9320 virus (as carried by the live virus in the neutralisation assay) (human respiratory syncytial virus, …). In words: cell-based or functional assay.

T1 sequence (P03420 26-109, chain 1 of 2): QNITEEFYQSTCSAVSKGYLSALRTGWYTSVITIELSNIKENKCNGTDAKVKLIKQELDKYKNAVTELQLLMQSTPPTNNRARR
T1 sequence (P03420 137-524, chain 2 of 2): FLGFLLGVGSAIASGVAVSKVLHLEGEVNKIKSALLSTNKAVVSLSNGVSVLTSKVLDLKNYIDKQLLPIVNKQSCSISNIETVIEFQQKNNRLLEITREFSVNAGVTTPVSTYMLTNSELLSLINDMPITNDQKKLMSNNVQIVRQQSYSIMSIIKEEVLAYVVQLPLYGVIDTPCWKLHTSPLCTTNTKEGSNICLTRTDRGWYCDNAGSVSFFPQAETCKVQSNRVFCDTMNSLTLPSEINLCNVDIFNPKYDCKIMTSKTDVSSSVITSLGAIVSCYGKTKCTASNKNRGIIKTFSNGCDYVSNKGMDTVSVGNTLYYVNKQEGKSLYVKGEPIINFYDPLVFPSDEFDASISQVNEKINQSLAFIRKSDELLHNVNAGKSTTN
RSV-F protein of RSV A2 virus (as carried by the live virus in the neutralisation assay), sequence (P03420 26-574): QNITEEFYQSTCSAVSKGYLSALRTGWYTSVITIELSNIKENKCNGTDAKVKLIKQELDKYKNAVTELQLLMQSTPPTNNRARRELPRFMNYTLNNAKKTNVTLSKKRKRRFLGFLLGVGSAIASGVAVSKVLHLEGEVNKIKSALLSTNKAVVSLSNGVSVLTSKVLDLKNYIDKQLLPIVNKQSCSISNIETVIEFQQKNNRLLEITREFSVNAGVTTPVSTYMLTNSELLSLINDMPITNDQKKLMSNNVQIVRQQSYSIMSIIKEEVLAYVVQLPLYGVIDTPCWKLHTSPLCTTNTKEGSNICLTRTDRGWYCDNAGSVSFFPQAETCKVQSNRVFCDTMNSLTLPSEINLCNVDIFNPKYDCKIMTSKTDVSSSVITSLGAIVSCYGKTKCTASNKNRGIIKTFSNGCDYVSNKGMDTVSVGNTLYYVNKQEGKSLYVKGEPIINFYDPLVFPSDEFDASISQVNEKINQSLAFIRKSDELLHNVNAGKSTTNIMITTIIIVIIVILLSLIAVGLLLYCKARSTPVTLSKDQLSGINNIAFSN

B1: R1-11C3QH (antibody, human IgG1, kappa, V domains shown)
VH: EVQLEESGAELVRSGASVKLSCTASGFNIKDYYMHWVKQRPEQGLEWIGWIDPENGDTEYAPKFQGKATLTADTSSNTAYLQLSTLTSEDNAVYYCNAAYYGDYVEDMDYWGQGTSVTVSS
VL: DIVMTQTPLSLSVSLGDQASISCRSSQSIVHSDGNTFLEWYLQKPGQSPKLLIYKVSNRFSGVPDRFSGSGSGTDFTLKISRVEAEDLGVYYCFQASHLPRTFGGGTKLEIKR
notes: also called chimeric antibody of R1-11C3
On to B1, for which, in experiment [1], the Kd was determined as 0.0256 nM, the dissociation rate constant (koff) amounted to 1.41e-05 s⁻¹ and the on-rate constant (kon) stood at 549000 M⁻¹ s⁻¹. Besides, the “Absolute IC50, neutralizing RSV A2 (HEp-2 cells, indirect ELISA)” value in experiment [2] turned out to be 0.118 µg/mL. Moreover, the “Absolute IC50, neutralizing RSV A Long (HEp-2 cells, indirect ELISA)” value in experiment [3] amounted to 0.316 µg/mL. In experiment [4], the “Absolute IC50, neutralizing RSV B9320 (HEp-2 cells, indirect ELISA)” value is 0.0666 µg/mL.

B2: R10-6A11QH (antibody, human IgG1, kappa, V domains shown)
VH: QVKLEESGPGILQPSQTLSLTCSFSGFSLSTSGMGVSWIRQPSGKGLEWLAHIYWDDDKNYNPSLKSRLTISKDTSRNQVFLKITSVDTADTATYYCARKIYYDYDYALDYWGQGTSVTVSS
VL: DIVMTQAAFSNPVTLGTSASISCRSSKSLLHSNGITYLCWFLQKPGQSPQLLIYQMSNLASGVPDRFSGSGSGTDFTLRISRVEAEDVGVYYCAQNLELWTFGGGTKLEIKR
notes: also called chimeric antibody of R10-6A11
For B2, in experiment [1], the dissociation rate constant (koff) worked out at 0.000339 s⁻¹ and the kon is 1.03e+06 M⁻¹ s⁻¹. The “Absolute IC50, neutralizing RSV A2 (HEp-2 cells, indirect ELISA)” value in experiment [2] amounted to 0.00745 µg/mL. Also, the “Absolute IC50, neutralizing RSV A Long (HEp-2 cells, indirect ELISA)” value in experiment [3] was determined as 0.0199 µg/mL. For the same molecule, in experiment [4], the “Absolute IC50, neutralizing RSV B9320 (HEp-2 cells, indirect ELISA)” value was 0.266 µg/mL.
